Substitutions are numbered along the chain they refer to.
Legend:
[1] = molecular target: T1, human CC chemokine receptor 4 (CCR4) (human, UniProt P51679 1-360); assay: cell-based or functional assay
T1 sequence (looked up): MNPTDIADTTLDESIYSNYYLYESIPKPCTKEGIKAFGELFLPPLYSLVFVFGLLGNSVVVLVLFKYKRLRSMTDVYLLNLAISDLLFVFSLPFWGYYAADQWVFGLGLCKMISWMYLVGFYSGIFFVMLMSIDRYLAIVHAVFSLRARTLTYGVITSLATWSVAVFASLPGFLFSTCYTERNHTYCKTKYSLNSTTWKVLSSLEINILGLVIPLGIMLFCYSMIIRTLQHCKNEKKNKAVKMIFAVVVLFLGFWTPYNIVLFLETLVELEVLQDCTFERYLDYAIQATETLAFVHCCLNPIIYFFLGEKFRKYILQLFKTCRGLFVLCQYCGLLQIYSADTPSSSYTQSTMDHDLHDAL

[2] = molecular target: T1, human CC chemokine receptor 4 (CCR4); assay: competition in flow cytometry on CCRF-CEM cells: scFv titrated against 50 nM Alexa647-labelled MDC-SNAP; remaining MDC-SNAP signal (Alexa 647)
Method: To determine whether the anti-CCR4 antibodies from Example 1 interfere with the binding of CCR4 ligands to the receptor, competition experiments were performed. […] The SNAP-tag is derived from the 20 kDa DNA repair protein 06-alkylguanine-DNA alkyltransferase.
The CCR4+ CCRF-CEM-cells were harvested from culture flasks, washed 2 times with RPMI-1640 culture medium and aliquot 1×10^5 cells per well into V-shaped 96-well plates (Greiner Bio-One, Frickenhausen, Germany). Cells were centrifuged at 500×g for 5 minutes and the supernatant was aspirated.

[3] = molecular target: T2, monkey (Macaca mulatta) CCR4 (monkey (Macaca mulatta), UniProt F7GUA3 1-360); assay: flow cytometry on transiently transfected HEK-293T/17 cells, IgG 1 ug/ml (data not shown)
T2 construct: also called monkey CCR4
T2 sequence: T1 sequence (looked up) with M116I, L201I, L215F, E269D, L334F
Method: (§1) For transient transfection, Hek293T/17 cells were seeded as 2×10^6 cells in a T75 (NUNC) flask. 48 h after seeding, the cells were transfected with Fugene (ROCHE). 40 μl Fugene and 16 μg DNA are used per T75. The cells were used for assays 48 h after transfection.
(§2) Non-transfected (CCR4 negative) cells served as a negative control. The cells were cultivated further for 48 hours under regular conditions and harvested form flasks as described above. One times 10^5 cells per well were aliquoted into V-shaped 96-well plates (Greiner Bio-One, Frikenhausen, Germany). […] The samples were then washed twice by centrifugation and re-suspension in 150 μl FACS buffer. […] The samples were washed twice as described above and re-suspended in 250 μl FACS buffer followed by transfer into a U-shaped 96-well plate (Corning, Schiphol-Rijk, Netherlands) for flow cytometry on FACSCantoII (BD Biosciences, San Jose, Calif.).

mouse CCR4 = molecular target: T3, mouse CCR4 (mouse, UniProt P51680 1-360); assay: flow cytometry on transiently transfected HEK-293T/17 cells, IgG 1 ug/ml
T3 construct: whole, on cells; also called murine CCR4
T3 sequence (looked up): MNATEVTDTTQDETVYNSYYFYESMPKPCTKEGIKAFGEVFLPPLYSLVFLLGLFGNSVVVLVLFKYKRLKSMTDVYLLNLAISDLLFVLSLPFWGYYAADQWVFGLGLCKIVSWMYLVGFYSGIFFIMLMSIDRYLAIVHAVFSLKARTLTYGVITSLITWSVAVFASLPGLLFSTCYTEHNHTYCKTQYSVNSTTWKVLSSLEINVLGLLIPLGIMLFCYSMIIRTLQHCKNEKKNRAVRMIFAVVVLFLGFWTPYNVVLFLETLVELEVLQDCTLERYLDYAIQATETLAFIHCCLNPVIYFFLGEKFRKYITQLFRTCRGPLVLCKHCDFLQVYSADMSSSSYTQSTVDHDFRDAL
Method: as §1, §2

[4] = molecular target: T1, human CC chemokine receptor 4 (CCR4); assay: flow cytometry competition; IgG titrated from 5 ug/ml against fixed Alexa647 MDC-SNAP (50 nM); competitor MDC-SNAP
[5] = molecular target: T1, human CC chemokine receptor 4 (CCR4); assay: cell-based or functional assay; remark: listed apart in the source
[6] = molecular target: T1, human CC chemokine receptor 4 (CCR4); assay: cell-based or functional assay; remark: listed apart in the source
[7] = molecular target: T1, human CC chemokine receptor 4 (CCR4); assay: cell-based or functional assay; remark: listed apart in the source
[8] = molecular target: T1, human CC chemokine receptor 4 (CCR4); assay: flow cytometry competition; IgG titrated from 2.5 ug/ml against fixed biotinylated TARC; competitor biotinylated TARC
[9] = molecular target: T1, human CC chemokine receptor 4 (CCR4); assay: flow cytometry on Hut78 cells (CCR4-positive); defucosylated IgG1, detected with RPE anti-human IgG; Median-PE [panel Hut78]
Method: (§3) All cells were re-suspended in PBS with 0.2% BSA and 0.09% NaN3 and finally aliquoted 1×10^5 cells per well into V-shaped 96-well plates (Greiner Bio-One, Frickenhausen, Germany). Cells were centrifuged at 400×g for 5 min and then incubated at 4° C. for 60 min with different IgG dilutions. For binding in presence of human serum, CCRF-CEM cells were incubated with different IgG-solutions at either 10% or 50% of human serum (Sigma Aldrich, St Louis, Mo., USA) at 37° C. for 60 min.

[10] = molecular target: T1, human CC chemokine receptor 4 (CCR4); assay: flow cytometry on CCRF-CEM cells; defucosylated IgG1, detected with RPE anti-human IgG; Median-PE [panel CCRF-CEM]
Method: as §3

B1: 208 scFv (scFv, not shown: small tags and cut ends)
scFv: QVQLVQSGAEVKKPGSSVKVSCKASGGTFSSYAMSWVRQAPGQGLEWMGGIIPIFGTVNYAQKFQGRVTMTRDTSTSTVYMELSSLRSDDTAVYYCARRGGSYFDYWGQGTLVTVSSKLSGSASAPKLEEGEFSEARVSYVLTQPPSASGTPGQSVTISCSGSTSNIGSHYVFWYQQLPGTAPRLLIYRNHQRPSGVPDRLSGSKSGTSASLAISGLRSEDEADYYCAVWDAKYRGWVFGGGTKLTVL
- IC50 of inhibition of TARC-mediated Ca-Flux in CCRF-CEM cells [1]: 0.0019 nM

B2: 306 scFv (scFv, not shown: small tags and cut ends)
scFv: B1 scFv with S88P, F173S
- IC50 of inhibition of TARC-mediated Ca-Flux in CCRF-CEM cells [1]: 0.0012 nM

B3: 308 scFv (scFv, not shown: small tags and cut ends)
scFv: B1 scFv with S88P
- IC50 of inhibition of TARC-mediated Ca-Flux in CCRF-CEM cells [1]: 0.003 nM

B4: 406 scFv (scFv, not shown: small tags and cut ends)
scFv: B1 scFv with G26E, F173S
notes: Expressed in TG1 bacteria
- IC50 (read off the curve) [2]: ~0.1 nM
- IC50 of inhibition of TARC-mediated Ca-Flux in CCRF-CEM cells [1]: 0.001 nM

B5: 501 scFv (scFv, not shown: small tags and cut ends)
scFv: QVQLVQSGAEVKKPGSSVKVSCKASEGTFSSYAMSWVRQAPGQGLEWMGGIIPIFGTVNYAQKFQGRVTMTRDTSTSTVYMELSSLRSDDTAVYYCARRRGAKFDYWGQGTLVTVSSKLSGSASAPKLEEGEFSEARVSYVLTQQPSASGTPGQSVTISCSGSTSNIGSHYVVWYQQLPGTAPRLLIYRNHQRPSGVPDRLSGSKSGTSASLAIGGLRSEDEADYYCAVWDDTLSGWVFGGGTKLTVL
notes: Expressed in TG1 bacteria; also called scFv 501; antibody 501 (single chain form)
- IC50 (read off the curve) [2]: ~0.3 nM
- IC50 of inhibition of TARC-mediated Ca-Flux in CCRF-CEM cells [1]: 0.001 nM

B6: 503 scFv (scFv, not shown: small tags and cut ends)
scFv: B5 scFv with Q145P
notes: Expressed in TG1 bacteria
- IC50 (read off the curve) [2]: ~0.3 nM
- IC50 of inhibition of TARC-mediated Ca-Flux in CCRF-CEM cells [1]: 0.0012 nM

B7: 803 scFv (scFv, not shown: small tags and cut ends)
scFv: B5 scFv with E26G, M34I, V58A, D89E, Q145P
notes: Expressed in TG1 bacteria; also called scFv 803; antibody 803 (single chain form)
- IC50 (read off the curve) [2]: ~0.2 nM
- IC50 of inhibition of TARC-mediated Ca-Flux in CCRF-CEM cells [1]: 0.01 nM

B8: IgG form of antibody 306 (defucosylated IgG1) (antibody, V domains shown)
VH: QVQLVQSGAEVKKPGSSVKVSCKASGGTFSSYAMSWVRQAPGQGLEWMGGIIPIFGTVNYAQKFQGRVTMTRDTSTSTVYMELSSLRPDDTAVYYCARRGGSYFDYWGQGTLVTVSS
VL: SYVLTQPPSASGTPGQSVTISCSGSTSNIGSHYVSWYQQLPGTAPRLLIYRNHQRPSGVPDRLSGSKSGTSASLAISGLRSEDEADYYCAVWDAKYRGWVFGGGTKLTVLG
notes: Human IgG1, lambda light chain; produced in presence of Kifunensine (defucosylated); Biotinylated via cysteines for the human serum experiment
- binding result [3]: binds
- binding result (mouse CCR4): binds
- IC50 [4]: 0.28 nM
- ADCC on CCRF-CEM cells with human PBMCs, EC50 [5]: 0.114 nM
- ADCC on CCRF-CEM cells, Max. Killing (%; nM IgG) [5]: 118 % (at 1.4 nM IgG)
- ADCC on L-428 cells with human PBMCs, EC50 [5]: 0.708 nM
- ADCC on L-428 cells, Max. Killing (%; nM IgG) [5]: 88 % (at 7 nM IgG)
- Inhibition of MDC (Ca-Flux), Blockage of signaling in % at 10 µg/ml IgG [6]: 74%
- Inhibition of TARC (Ca-Flux), IC50 [6]: 0.039 nM
- Inhibition of CCL17/TARC-induced migration of CCRF-CEM cells, IC50 [7]: 0.158 nM
- Inhibition of CCL22/MDC-induced migration, Blockage of migration in % (IgG 10 µg/ml) [7]: 50%
- IC50 [8]: 0.51 nM
- EC50 (read off the curve) [9]: ~0.06 nM
- EC50 (read off the curve) [10]: ~0.06 nM

B9: IgG form of antibody 406 (defucosylated IgG1) (antibody, V domains shown)
VH: B8 VH with G26E, P88S
VL: B8 VL
notes: as for B8
- binding result [3]: binds
- binding result (mouse CCR4): binds
- IC50 [4]: 0.27 nM
- ADCC on CCRF-CEM cells with human PBMCs, EC50 [5]: 0.0999 nM
- ADCC on CCRF-CEM cells, Max. Killing (%; nM IgG) [5]: 121 % (at 1.4 nM IgG)
- ADCC on L-428 cells with human PBMCs, EC50 [5]: 0.704 nM
- ADCC on L-428 cells, Max. Killing (%; nM IgG) [5]: 78 % (at 7 nM IgG)
- Inhibition of MDC (Ca-Flux), Blockage of signaling in % at 10 µg/ml IgG [6]: 74%
- Inhibition of TARC (Ca-Flux), IC50 [6]: 0.028 nM
- Inhibition of CCL17/TARC-induced migration of CCRF-CEM cells, IC50 [7]: 0.178 nM
- Inhibition of CCL22/MDC-induced migration, Blockage of migration in % (IgG 10 µg/ml) [7]: 49%
- IC50 [8]: 0.94 nM
- EC50 (read off the curve) [9]: ~0.08 nM
- EC50 (read off the curve) [10]: ~0.2 nM

B10: KW0761 IgG (antibody, V domains shown)
VH: EVQLVESGGDLVQPGRSLRLSCAASGFIFSNYGMSWVRQAPGKGLEWVATISSASTYSYYPDSVKGRFTISRDNAKNSLYLQMNSLRVEDTALYYCGRHSDGNFAFGYWGQGTLVTVSS
VL: DVLMTQSPLSLPVTPGEPASISCRSSRNIVHINGDTYLEWYLQKPGQSPQLLIYKVSNRFSGVPDRFSGSGSGTDFTLKISRVEAEDVGVYYCFQGSLLPWTFGQGTKVEIK
- ADCC on CCRF-CEM cells with human PBMCs, EC50 [5]: 0.315 nM
- ADCC on CCRF-CEM cells, Max. Killing (%; nM IgG) [5]: 69.8 % (at 1.4 nM IgG)
- ADCC on L-428 cells with human PBMCs, EC50 [5]: 0.057 nM
- ADCC on L-428 cells, Max. Killing (%; nM IgG) [5]: 84 % (at 7 nM IgG)

B11: 601 scFv (scFv, not shown: small tags and cut ends)
scFv: QVQLVQSGAEVKKPGSSVKVSCKASGGTFSSYAMSWVRQAPGQGLEWMGGIIPIFGTVNYAQKFQGRVTMTRDTSTSTVYMELSSLRSDDTAVYYCARRRGAKFDYWGQGTLVTVSSKLSGSASAPKLEEGEFSEARVSYVLTQQPSASGTPGQSVTISCSGSTSNIGSHYVVWYQQLPGTAPRLLIYRNHQRPSGVPDRLSGSKSGTSASLAIGGLRSEDEADYYCAVWDDTLSGWVFGGGTKLTV
- IC50 of inhibition of TARC-mediated Ca-Flux in CCRF-CEM cells [1]: 0.003 nM

From patent publication US20120164161A1 (AFFITECH RESEARCH, published 2012)
